According to patent US20060200330A1, “Methods and systems for modeling and simulating biochemical pathways” (KOREA INSTITUTE OF SCIENCE AND TECHNOLOGY, priority 2005, published 2006):
Like-named read-outs stand apart in the source and are kept apart here.

Key:
[1] = target: EGFR; settings: cited from earlier work
[2] = test system: ERK; experiment: Western blot of ERK activation (anti-diphosphorylated ERK) in PC12 cells; format: cell-based; settings: PC12 cells treated with 100 ng/ml EGF for 0 to 120 min
Description: (§1) In order to confirm the simulation, PC12 cells treated with EGF (100 ng/ml) were used to measure the time data tracking the activation levels of MEK and ERK, respectively. […] Western blot analysis was performed as follows. PC12 cells were treated with 100 ng/ml EGF for 0 to 120 min. Dissolved protein samples were reacted by using anti-phosphorylated MEK antibodies and anti-diphosphorylated ERK antibodies. Then, the resultant was reacted with anti-HRP (horse radish peroxidase)-conjugated secondary antibodies and confirmed the presence of a band via ECL chemoluminscence.
(§2) PC12 cells treated with EGF or nerve growth factor (NGF) were examined to evaluate the efficacies of PD09859 (10 μM) and U0126 (0.01-10 μM) in respect of MEK and ERK activation. Western blot analysis was performed as follows. PC12 cells treated with PD09859 and U0126 were treated with 100 ng/ml of EGF or NGF for 5 min. Then, the resulting protein sample was separated by performing SDS/PAGE, and then blotted by using anti-phosphorylated MEK and anti-diphosphoryated ERK antibodies. Again, the resultant was blotted by using anti-HRP (horseradish peroxidase) conjugated secondary antibodies and identified in bands by ECL chemo-luminescence.

[3] = test system: MEK; experiment: Western blot of MEK activation (anti-phosphorylated MEK) in PC12 cells; format: cell-based
Description: as §1, §2

B1: EGF: peptide growth factor composed of 55 amino acids in a long chain (protein, UniProt P01133 23-1207, looked up)
Pro-epidermal growth factor: PQHWSCPEGTLAGNGNSTCVGPAPFLIFSHGNSIFRIDTEGTNYEQLVVDAGVSVIMDFHYNEKRIYWVDLERQLLQRVFLNGSRQERVCNIEKNVSGMAINWINEEVIWSNQQEGIITVTDMKGNNSHILLSALKYPANVAVDPVERFIFWSSEVAGSLYRADLDGVGVKALLETSEKITAVSLDVLDKRLFWIQYNREGSNSLICSCDYDGGSVHISKHPTQHNLFAMSLFGDRIFYSTWKMKTIWIANKHTGKDMVRINLHSSFVPLGELKVVHPLAQPKAEDDTWEPEQKLCKLRKGNCSSTVCGQDLQSHLCMCAEGYALSRDRKYCEDVNECAFWNHGCTLGCKNTPGSYYCTCPVGFVLLPDGKRCHQLVSCPRNVSECSHDCVLTSEGPLCFCPEGSVLERDGKTCSGCSSPDNGGCSQLCVPLSPVSWECDCFPGYDLQLDEKSCAASGPQPFLLFANSQDIRHMHFDGTDYGTLLSQQMGMVYALDHDPVENKIYFAHTALKWIERANMDGSQRERLIEEGVDVPEGLAVDWIGRRFYWTDRGKSLIGRSDLNGKRSKIITKENISQPRGIAVHPMAKRLFWTDTGINPRIESSSLQGLGRLVIASSDLIWPSGITIDFLTDKLYWCDAKQSVIEMANLDGSKRRRLTQNDVGHPFAVAVFEDYVWFSDWAMPSVMRVNKRTGKDRVRLQGSMLKPSSLVVVHPLAKPGADPCLYQNGGCEHICKKRLGTAWCSCREGFMKASDGKTCLALDGHQLLAGGEVDLKNQVTPLDILSKTRVSEDNITESQHMLVAEIMVSDQDDCAPVGCSMYARCISEGEDATCQCLKGFAGDGKLCSDIDECEMGVPVCPPASSKCINTEGGYVCRCSEGYQGDGIHCLDIDECQLGEHSCGENASCTNTEGGYTCMCAGRLSEPGLICPDSTPPPHLREDDHHYSVRNSDSECPLSHDGYCLHDGVCMYIEALDKYACNCVVGYIGERCQYRDLKWWELRHAGHGQQQKVIVVAVCVVVLVMLLLLSLWGAHYYRTQKLLSKNPKNPYEESSRDVRSRRPADTEDGMSSCPQPWFVVIKEHQDLKNGGQPVAGEDGQAADGSMQPTSWRQEPQLCGMGTEQGCWIPVSSDKGSCPQVMERSFHMPSYGTQTLEGGVEKPHSLLSANPLWQQRALDPPHQMELTQ
modifications: Pro-epidermal growth factor
notes: peptide growth factor composed of 55 amino acids in a long chain
For B1, the Kd ([1]; EGFR high affinity binding, read-out: dissociation constant (Kd), interaction with a high affinity) is given as less than 1 nM, the Kd ([1]; EGFR low affinity binding, read-out: dissociation constant (Kd), interaction with a low affinity) is given as 6 to 12 nM and the “ERK activation, time course” value [2] is given as “temporary activation”. The “MEK activation, time course” value ([3]; PC12 cells treated with 100 ng/ml EGF for 0 to 120 min) was “temporary activation” and the MEK activation ([3]; PC12 cells treated with EGF 100 ng/ml for 5 min) was “became still higher”.
